From patent publication US20240368272A1 (UNIVERSITY OF BERN, published 2024)
Each block holds one binder with its values, some of them ahead of it.

How the values were obtained:
[1] = target: T1, human KCNQ1 (expressed together with KCNE1 as a separate chain; IKs channel) (human, UniProt P51787 1-676); experiment: cell-based or functional assay
T1 sequence: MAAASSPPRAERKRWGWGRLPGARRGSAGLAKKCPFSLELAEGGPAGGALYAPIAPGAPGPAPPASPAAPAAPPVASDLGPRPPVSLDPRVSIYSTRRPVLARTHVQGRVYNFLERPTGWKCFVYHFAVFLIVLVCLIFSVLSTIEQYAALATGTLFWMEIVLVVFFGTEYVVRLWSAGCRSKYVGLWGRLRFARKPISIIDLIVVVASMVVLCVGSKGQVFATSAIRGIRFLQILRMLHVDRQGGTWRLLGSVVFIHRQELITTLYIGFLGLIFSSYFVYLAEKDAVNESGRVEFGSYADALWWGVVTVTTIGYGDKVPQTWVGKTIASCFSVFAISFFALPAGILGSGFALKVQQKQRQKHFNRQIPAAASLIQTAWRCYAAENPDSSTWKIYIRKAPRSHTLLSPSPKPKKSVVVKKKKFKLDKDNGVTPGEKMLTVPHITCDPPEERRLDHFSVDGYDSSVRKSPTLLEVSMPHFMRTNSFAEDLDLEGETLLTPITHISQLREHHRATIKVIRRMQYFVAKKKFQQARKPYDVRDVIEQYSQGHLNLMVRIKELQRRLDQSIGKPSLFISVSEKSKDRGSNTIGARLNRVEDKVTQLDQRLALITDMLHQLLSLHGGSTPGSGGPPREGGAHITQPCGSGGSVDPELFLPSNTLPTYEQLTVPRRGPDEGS

[2] = target: T2, KCNQ1 channel peptide (AEKDAVNESGRVEFGSYADA) (human); experiment: SPR (Biacore 8K), antibody immobilised on CM5 chip, peptide as analyte, mean of triplicate
T2 construct: Coupled to KLH for immunisation; the free peptide (2.12 kDa) was the analyte in SPR; also called KCNQ1 peptide; antigenic peptide
T2 peptide: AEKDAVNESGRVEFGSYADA
Description: Antibody kinetics and affinity measurement: A Biacore 8K Surface Plasmon Resonance (SPR) instrument (GE Healthcare Life Sciences, ProteoGenix, France) equipped with a CM5 sensor chip was used to generate binding kinetic rate and affinity constants at room temperature. IgG2a 8-F11-D4 (10 μg/ml) was immobilized onto the CM5 chip by amide coupling, following manufacturer's protocol. The surface chemistry was activated using 1-Ethyl-3-(3-dimethylaminopropyl) carbodiimide hydrochloride (EDC) and sulfo-N-Hydroxysuccinimide (NHS) reagents prior to immobilization, while ethanolamine was used to deactivate remaining active esters. Samples were prepared in HBS-EP⁺ buffer composed of 10 mM HEPES (pH 7.4), 150 mM NaCl, 3 mM EDTA, 0.05% Surfactant P20. The antigenic peptide was suspended in 20 mM sodium acetate (pH 4.5) and glycine-HCl (pH 1.5) was used as regeneration buffer. […] This level was considered optimal based upon the calculation of the maximal response (Rₘₐₓ) of analyte (antigenic peptide) to ligand (IgG2a): Rₘₐₓ=(MWanalyte/MWligand)×RL×Sₘ, where MWanalyte and MWligand are the molecular weights of the peptide (analyte, 2.12 kDa) to the antibody (ligand, 180 kDa as determined by SDS-PAGE), respectively, RL is the target amount of ligand bound in RU, and Sₘ represents the stoichiometric ratio of the analyte/ligand interaction (Sₘ equals 1). A theoretical Rₘₐₓ of […] is achieved at 10′000 RU of ligand. […] Injections were performed in triplicate to assess for the assay's reproducibility. All data were processed and analyzed with Biacore 8K Evaluation Software.

[3] = target: T3, N-terminally biotinylated KCNQ1 peptide (Nterm-Biotin-(CH2O)4-AEKDAVNESGRVEFGSYADA-Cterm) (human, N-terminal Biotin-(CH2O)4-); experiment: BLI (Octet RED96), biotinylated peptide on streptavidin tips, antibody in solution, 1:1 model, duplicate
T3 construct: Immobilised on streptavidin biosensor tips for Octet BLI
T3 peptide: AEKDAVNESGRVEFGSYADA
Description: (§1) FIG. 16. Kinetic measurements of mAb binding to 20aa KCNQ1 target sequence.
(§2) Binding kinetics of KCNQ1 peptide interactions with IgG2a 8-F11-D4 was monitored using Octet RED96 Bio-Layer Interferometry (Sartorius). All measurements were performed in duplicate at 25° C. in an assay-specific buffer containing 1× PBS pH 7.4, 1× kinetic buffer and 1% BSA using 96-well plates with orbital shake speed of 1,000 rpm. The binding curves were generated by first immobilizing 1 mM N-terminally biotinylated KCNQ1 peptide on streptavidin-coated biosensor tips for 2.5 min followed by a baseline equilibration step for 5 min. The biosensor tips were then submerged in wells containing […] mAbs for 5 min to monitor formation of the mAb-peptide complex, followed by antibody dissociation in the assay buffer for 5 minutes. A shift in the interference pattern of white light reflected from the surface of a biosensor tip caused by antibody binding/dissociation was monitored in real time. Antibody-peptide interactions were analyzed by a 1:1 binding model and the dissociation constants (KDs) were determined as ratios of dissociation (koff) and association (kon) binding rate constants derived using non-linear fitting model in GraphPad Prism.

[4] = target: T3, N-terminally biotinylated KCNQ1 peptide …; experiment: bio-layer interferometry (Octet RED96), biotinylated KCNQ1 peptide on streptavidin tips, 1:1 model, mean of duplicate runs
Description: as §1, §2

- half-maximal effective concentration (EC50) of APD90 reduction in hiPSC-CMCs [1]: 5.7 µg/mL
- mean IKs step current at +70 mV, whole-cell patch clamp, CHO cells stably expressing human IKs channels, 30 µg/ml IgG [1]: 1.6 fold
- mean IKs tail current upon repolarization to -40 mV, whole-cell patch clamp, CHO cells stably expressing human IKs channels, 30 µg/ml IgG [1]: 1.5 fold
- Kd [2]: 9.02 nM
- koff [2]: 0.00082 s⁻¹
- kon [2]: 90900 M⁻¹ s⁻¹
- Kd [3]: ~4 nM
- Kd [4]: 3.7 nM
B1: IgG2a 8-F11-D4 monoclonal antibody (antibody, V domains shown)
VH: EVKLVESGGGLVKPGGSLQLSCAASGFTFSNYAMSWVRQTPEKRLEWVASISGGGNTYYPDSVKGRFTISRDNARNILYLQMNSLRSEDTAMYYCVRATRDYFDYWGQGTTLTVSS
VL: DIVMSQSPSSLAVSVGEKVTMSCKSSQSLLNSRTRKSYLAWYQQKPGQSPKLLIYWASTRESGVPDRFTGSGSGTDFTLTISSVQAEDLAVYSCEQSYYLYTFGGGTKLEIK
notes: also called mouse monoclonal IgG2a 8-F11-D4; murine monoclonal anti-KCNQ1 antibody IgG2a 8-F11-D4

- IKs step current at +70 mV versus control, CHO cells stably expressing human IKs, 30 µg/ml recombinant antibody [1]: 1.6 fold
- IKs tail current versus control, CHO cells stably expressing human IKs, 30 µg/ml recombinant antibody [1]: 1.5 fold
B2: recombinant murine IgG2a 8-F11-D4 antibody (antibody, V domains shown)
VH: B1 VH
VL: B1 VL
